Drawing on patent US20160052979, this text covers Kd for two substances.

The subject of one data set is Purα (PURA). The data set is described as follows: EMSA. Conditions: unit not stated, densitometry. In general terms: In EMSA bound probe runs differently from free probe, usually more slowly.
The next data set relates to T1, TZIP (synthetic).
T1 sequence: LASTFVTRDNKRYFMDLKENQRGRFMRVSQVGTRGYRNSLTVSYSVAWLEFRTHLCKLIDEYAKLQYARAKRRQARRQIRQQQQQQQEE
Kind of data set: EMSA. As to conditions: unit not stated, densitometry.

The Kd is the equilibrium constant for the complex coming apart. Regarding “ALS ssDNA (C9ORF72 GGGGCC hexanucleotide repeat)”, the equilibrium dissociation constant (Kd) in the data set with Purα (PURA) (5 mM DTT, 5 mM EDTA, 0.5% Tween 20) was 16 nM; in the data set with TZIP (synthetic) (printed 5.5×1010, exponent sign lost, 5 mM DTT, 5 mM EDTA, 0.5% Tween 20, TZIP alters Purα shift and stimulates …), 0.55 nM.
As for “FXS ssDNA (FMR1 G-rich trinucleotide expanded repeat)”, the Kd was 1.9 nM in the data set on Purα (PURA) (printed 1.9×109, exponent sign lost) and 0.95 nM with TZIP (synthetic) (printed 9.5×1010, exponent sign lost, TZIP stimulates Purα binding).
